Test results taken from US20150037339A1 (Regeneron, published 2015).

Key:
[1] = target: T1, Activin A (human, UniProt P08476 311-426); assay: Octet cross-competition; binder on anti-hFc tip; 50 nM hActivin A pre-bound with 1 uM H4H10432P2 (col 7); black box
T1 construct: Homodimer of two βA subunits; bought from R&D Systems (#338-AC); also called inhibin-βA dimer; human Activin A
T1 sequence: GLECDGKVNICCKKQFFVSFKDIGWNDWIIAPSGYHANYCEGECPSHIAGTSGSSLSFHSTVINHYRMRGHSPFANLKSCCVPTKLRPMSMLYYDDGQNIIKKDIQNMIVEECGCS
Procedure: (§1) No. 8,309,082) and Control 3 (MAB3381, available from R&D Systems, Inc., Minneapolis, Minn.) were also included in the assays. All assays were performed at 25° C. with a microtiter plate shaking rate of 1000 rpm in Octet HBST buffer (0.01 M HEPES pH7.4, 0.15M NaCl, 3 mM EDTA, 0.05% v/v Surfactant P20, 0.1 mg/mL BSA) according to manufacturer's instructions (ForteBio Corp., Menlo Park, Calif.). […] Any remaining anti-hFc binding sites on the tips were blocked by incubating the tips in a 50 ug/mL solution of irrelevant antibody for 5 minutes.

[2] = target: T1, Activin A; assay: Octet cross-competition; binder on anti-hFc tip; 50 nM hActivin A pre-bound with 1 uM H4H10430P (col 5); black box
Procedure: as §1

[3] = target: T1, Activin A; assay: Octet cross-competition; binder on anti-hFc tip; 50 nM hActivin A pre-bound with 1 uM Control 3 (col 11); black box
Procedure: as §1

[4] = target: T1, Activin A; assay: Octet cross-competition; binder on anti-hFc tip; 50 nM hActivin A pre-bound with 1 uM H4H10423P (col 4); white box
Procedure: as §1

[5] = target: T1, Activin A; assay: Octet cross-competition; binder on anti-hFc tip; 50 nM hActivin A pre-bound with 1 uM H4H10429P (col 6); black box
Procedure: as §1

[6] = target: T2, Activin B (human, UniProt P09529 293-407); assay: SPR, captured mAb, 25C
T2 construct: Homodimer of two βB subunits; R&D Systems #659-AB
T2 chain: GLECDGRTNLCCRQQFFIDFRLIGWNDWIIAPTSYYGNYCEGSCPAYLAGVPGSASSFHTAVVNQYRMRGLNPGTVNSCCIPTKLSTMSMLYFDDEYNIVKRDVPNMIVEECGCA
Procedure: (§2) Antibody-antigen association was monitored for 240 seconds while dissociation in buffer was monitored for 600 seconds. Kinetic association and dissociation rate constants were determined by processing and fitting the data using Scrubber software version 2.0c. Binding equilibrium dissociation constants (KD) and dissociative half-lives (t_{1/2}) were then calculated from the kinetic rate constants as: KD (M)=kd/kₐ and t_{1/2} (min)=[ln 2/(60*kd)]. (NB=no binding observed under the conditions used; NT=not tested).

[7] = target: T1, Activin A; assay: SPR, captured mAb, 25C
Procedure: as §2

[8] = target: T1, Activin A; assay: Octet cross-competition; binder on anti-hFc tip; 50 nM hActivin A pre-bound with 1 uM Control 1 (col 10); black box
Procedure: as §1

[9] = target: T1, Activin A; assay: Octet cross-competition; binder on anti-hFc tip; 50 nM hActivin A pre-bound with 1 uM H4H10468P2 (col 2); white box
Procedure: as §1

[10] = target: T1, Activin A; assay: Octet cross-competition; binder on anti-hFc tip; 50 nM hActivin A mixed with 1 uM Isotype control 13 (-) (col 13); dark grey box
Procedure: as §1

[11] = target: T1, Activin A; assay: Octet cross-competition; binder on anti-hFc tip; 50 nM hActivin A mixed with 1 uM Isotype control 12 (-) (col 12); dark grey box
Procedure: as §1

[12] = target: T1, Activin A; assay: Octet cross-competition; binder on anti-hFc tip; 50 nM hActivin A pre-bound with 1 uM H4H10446P2 (col 1); white box
Procedure: as §1

[13] = target: T1, Activin A; assay: Octet cross-competition; binder on anti-hFc tip; 50 nM hActivin A pre-bound with 1 uM H4H10440P2 (col 9); black box
Procedure: as §1

[14] = target: T2, Activin B; assay: SPR, captured mAb, 37C
Procedure: as §2

[15] = target: T1, Activin A; assay: SPR, captured mAb, 37C
Procedure: as §2

[16] = target: T1, Activin A; assay: Octet cross-competition; binder on anti-hFc tip; 50 nM hActivin A pre-bound with 1 uM H4H10442P2 (col 3); white box
Procedure: as §1

[17] = target: T1, Activin A; assay: SPR, captured mAb, 37C; no dissociation observed, kd fixed
Procedure: as §2

[18] = target: T1, Activin A; assay: SPR, captured mAb, 25C; no dissociation observed, kd fixed
Procedure: as §2

[19] = target: T1, Activin A; assay: Octet cross-competition; binder on anti-hFc tip; 50 nM hActivin A pre-bound with 1 uM H4H10436P2 (col 8); black box
Procedure: as §1

B1: H4H10436P2 (antibody, human IgG4, V domains shown)
VH: QVQLVESGGGVVQPGRSLRLTCVASGFTVSSYGMHWVRQAPGKGLEWVAVMFYDESKKYYADSVKGRFTISRDNSKNTLYLQMNSLRVEDTAVYYCARDEQLDFEYWGQGTLVTVSS
VL: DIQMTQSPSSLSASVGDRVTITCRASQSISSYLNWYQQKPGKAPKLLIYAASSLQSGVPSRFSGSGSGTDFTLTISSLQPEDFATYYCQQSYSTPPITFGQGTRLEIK
- binding response [1]: 0.23
- binding response [2]: 0.28
- binding response [3]: -0.04
- binding response [4]: 1.41
- binding response [5]: 0.36
- 50 nM Ag Bound (RU) [6]: 32.8 RU
- Kd [6]: 0.0554 nM
- koff [6]: 0.000528 s⁻¹
- kon [6]: 9.52e+06 M⁻¹ s⁻¹
- t1/2 [6]: 0.365 h
- Activin A-20 nM (RU) [7]: 23.2 RU
- Kd [7]: 0.019 nM
- koff [7]: 0.000168 s⁻¹
- kon [7]: 8.85e+06 M⁻¹ s⁻¹
- t1/2 [7]: 1.15 h
- binding response [8]: 0.16
- binding response [9]: 1.32
- binding response [10]: 0.14
- binding response [11]: 0.28
- binding response [12]: 1.22
- binding response [13]: 0.27
- 50 nM Ag Bound (RU) [14]: 38.1 RU
- Kd [14]: 0.139 nM
- koff [14]: 0.00136 s⁻¹
- kon [14]: 9.78e+06 M⁻¹ s⁻¹
- t1/2 [14]: 8.5 min
- Activin A-20 nM (RU) [15]: 29.4 RU
- Kd [15]: ≤ 0.00335 nM
- kon [15]: 1.49e+07 M⁻¹ s⁻¹
- t1/2 [15]: ≥ 3.85 h
- binding response [16]: 1.39
- koff [17]: ≤ 5e-05 s⁻¹

B2: H4H10432P2 (antibody, human IgG4, V domains shown)
VH: EVQLVESGGGLVQPGRSLTLSCAVSGFTFDDHAMHWVRQAPGKGLEWVSGISWNSVSIGYADSVKGRFTISRDNAKTSLYLQMNSLRVDDTALYYCVQDLNDILTGYPLFDFWGQGTLVTVSS
VL: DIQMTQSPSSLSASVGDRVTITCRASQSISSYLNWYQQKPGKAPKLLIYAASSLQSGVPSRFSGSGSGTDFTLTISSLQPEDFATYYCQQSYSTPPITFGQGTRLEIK
- binding response [2]: 0.28
- binding response [3]: -0.05
- binding response [4]: 1.32
- binding response [5]: 0.32
- koff [18]: ≤ 5e-05 s⁻¹
- 50 nM Ag Bound (RU) [6]: 5.1 RU
- binding result [6]: no binding (tested: 50 nM)
- Activin A-20 nM (RU) [7]: 20.7 RU
- Kd [7]: ≤ 0.00318 nM
- kon [7]: 1.57e+07 M⁻¹ s⁻¹
- t1/2 [7]: ≥ 3.85 h
- binding response [8]: 0.15
- binding response [9]: 1.58
- binding response [19]: 0.29
- binding response [10]: 0.11
- binding response [11]: 0.3
- binding response [12]: 1.36
- binding response [13]: 0.27
- 50 nM Ag Bound (RU) [14]: 5.1 RU
- Activin A-20 nM (RU) [15]: 25.1 RU
- Kd [15]: ≤ 0.00218 nM
- kon [15]: 2.3e+07 M⁻¹ s⁻¹
- t1/2 [15]: ≥ 3.85 h
- binding response [16]: 1.63
- koff [17]: ≤ 5e-05 s⁻¹
